How the values were obtained:
[1] = test system: mouse AAT in mouse plasma
[2] = target: plasma-derived human alpha 1-antitrypsin (AAT) (UniProt P01009)
[3] = test system: recombinant human alpha 1-antitrypsin (AAT) derived from recombinant CHO cells
[4] = target: another recombinant AAT (R&D systems) (UniProt P01009)

## trypsin
[1]
  trypsin activity (fluorogenic peptide substrate): drastically reduced trypsin activity in a similar manner as ... mouse plasma diluted from a sample that contained about 1.2 g/L mouse AAT
[2]
  trypsin activity (fluorogenic peptide substrate): drastically reduced trypsin activity in a similar manner as a plasma-derived AAT (Prolastin)
[3]
  trypsin activity (fluorogenic peptide substrate): At a concentration of 5 ng/ml, the recombinant AAT described and obtained by the methods presented herein (ExcellGene) drastically reduced trypsin activity
[4]
  trypsin activity (fluorogenic peptide substrate): drastically reduced trypsin activity in a similar manner as ... another recombinant AAT (R&D systems)
